Assay results from IntAct's records for PubMed 19103591.

B1: Sigma-E factor regulatory protein RseB (Escherichia coli (strain K12)), P0AFX9 (parent)
chain: MKQLWFAMSLVTGSLLFSANASATPASGALLQQMNLASQSLNYELSFISINKQGVESLRYRHARLDNRPLAQLLQMDGPRREVVQRGNEISYFEPGLEPFTLNGDYIVDSLPSLIYTDFKRLSPYYDFISVGRTRIADRLCEVIRVVARDGTRYSYIVWMDTESKLPMRVDLLDRDGETLEQFRVIAFNVNQDISSSMQTLAKANLPPLLSVPVGEKAKFSWTPTWLPQGFSEVSSSRRPLPTMDNMPIESRLYSDGLFSFSVNVNRATPSSTDQMLRTGRRTVSTSVRDNAEITIVGELPPQTAKRIAENIKFGAAQ
partner: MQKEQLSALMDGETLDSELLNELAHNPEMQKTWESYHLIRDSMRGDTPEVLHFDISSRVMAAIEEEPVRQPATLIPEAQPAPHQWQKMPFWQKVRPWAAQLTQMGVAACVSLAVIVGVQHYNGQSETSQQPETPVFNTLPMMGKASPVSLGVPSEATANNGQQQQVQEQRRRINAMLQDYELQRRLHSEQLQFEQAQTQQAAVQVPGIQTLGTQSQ
B2: Anti-sigma-E factor RseA (Escherichia coli (strain K12)), P0AFX7 (parent)
chain: B1 partner
partner: B1 chain

Variants of: B1
Settings: with rsea_ecoli rseA

Effect of a mutation on the interaction, decreasing interaction:
MKQLWFAMSLVTGSLLFSANASATPASGALLQQMNLASQSLNYELSFISINKQGVESLRYRHARLDNRPLAQLLQMDGPRREVVQRGNEISYFEPGLEPFTLNGDYIVDSLPSLIYTDFKRLSPYYDFISVGRTRIADRLCEVIRVVARDGTRYSYIVWMDTESKLPMRVALLDRDGETLEQFRVIAFNVNQDISSSMQTLAKANLPPLLSVPVGEKAKFSWTPTWLPQGFSEVSSSRRPLPTMDNMPIESRLYSDGLFSFSVNVNRATPSSTDQMLRTGRRTVSTSVRDNAEITIVGELPPQTAKRIAENIKFGAAQ [D171A]
MKQLWFAMSLVTGSLLFSANASATPASGALLQQMNLASQSLNYELSFISINKQGVESLRYRHARLDNRPLAQLLQMDGPRREVVQRGNEISYFEPGLEPFTLNGDYIVDSLPSLIYTDFKRLSPYYDFISVGRTRIADRLCEVIRVVARDGTRYSYIVWMDTESKLPMRVDLLDRAGETLEQFRVIAFNVNQDISSSMQTLAKANLPPLLSVPVGEKAKFSWTPTWLPQGFSEVSSSRRPLPTMDNMPIESRLYSDGLFSFSVNVNRATPSSTDQMLRTGRRTVSTSVRDNAEITIVGELPPQTAKRIAENIKFGAAQ [D176A]
MKQLWFAMSLVTGSLLFSANASATPASGALLQQMNLASQSLNYELSFISINKQGVESLRYRHARLDNRPLAQLLQMDGPRREVVQRGNEISYFEPGLEPFTLNGDYIVDSLPSLIYTDFKRLSPYYDFISVGRTRIADRLCEVIRVVARDGTRYSYIVWMDTESKLPMRVDLLDRDGATLEQFRVIAFNVNQDISSSMQTLAKANLPPLLSVPVGEKAKFSWTPTWLPQGFSEVSSSRRPLPTMDNMPIESRLYSDGLFSFSVNVNRATPSSTDQMLRTGRRTVSTSVRDNAEITIVGELPPQTAKRIAENIKFGAAQ [E178A]
MKQLWFAMSLVTGSLLFSANASATPASGALLQQMNLASQSLNYELSFISINKQGVESLRYRHARLDNRPLAQLLQMDGPRREVVQRGNEISYFEPGLEPFTLNGDYIVDSLPSLIYTDFKRLSPYYDFISVGRTRIADRLCEVIRVVARDGTRYSYIVWMDTESKLPMRVDLLDRDGETLEAFRVIAFNVNQDISSSMQTLAKANLPPLLSVPVGEKAKFSWTPTWLPQGFSEVSSSRRPLPTMDNMPIESRLYSDGLFSFSVNVNRATPSSTDQMLRTGRRTVSTSVRDNAEITIVGELPPQTAKRIAENIKFGAAQ [Q182A]
MKQLWFAMSLVTGSLLFSANASATPASGALLQQMNLASQSLNYELSFISINKQGVESLRYRHARLDNRPLAQLLQMDGPRREVVQRGNEISYFEPGLEPFTLNGDYIVDSLPSLIYTDFKRLSPYYDFISVGRTRIADRLCEVIRVVARDGTRYSYIVWMDTESKLPMRVDLLDRDGETLEQFRVIAFNVNQDISSSMQTLAKANLPPLLSVPVGEKAKFSWTPTWLPQGFSEVSSSAAPLPTMDNMPIESRLYSDGLFSFSVNVNRATPSSTDQMLRTGRRTVSTSVRDNAEITIVGELPPQTAKRIAENIKFGAAQ [R238A;R239A]
MKQLWFAMSLVTGSLLFSANASATPASGALLQQMNLASQSLNYELSFISINKQGVESLRYRHARLDNRPLAQLLQMDGPRREVVQRGNEISYFEPGLEPFTLNGDYIVDSLPSLIYTDFKRLSPYYDFISVGRTRIADRLCEVIRVVARDGTRYSYIVWMDTESKLPMRVDLLDRDGETLEQFRVIAFNVNQDISSSMQTLAKANLPPLLSVPVGEKAKFSWTPTWLPQGFSEVSSSRRPLPTMAAMPAASRLYSDGLFSFSVNVNRATPSSTDQMLRTGRRTVSTSVRDNAEITIVGELPPQTAKRIAENIKFGAAQ [D245A;N246A;I249A;E250A]
MKQLWFAMSLVTGSLLFSANASATPASGALLQQMNLASQSLNYELSFISINKQGVESLRYRHARLDNRPLAQLLQMDGPRREVVQRGNEISYFEPGLEPFTLNGDYIVDSLPSLIYTDFKRLSPYYDFISVGRTRIADRLCEVIRVVARDGTRYSYIVWMDTESKLPMRVDLLDRDGETLEQFRVIAFNVNQDISSSMQTLAKANLPPLLSVPVGEKAKFSWTPTWLPQGFSEVSSSRRPLPTMDNMPAESRLYSDGLFSFSVNVNRATPSSTDQMLRTGRRTVSTSVRDNAEITIVGELPPQTAKRIAENIKFGAAQ [I249A]
MKQLWFAMSLVTGSLLFSANASATPASGALLQQMNLASQSLNYELSFISINKQGVESLRYRHARLDNRPLAQLLQMDGPRREVVQRGNEISYFEPGLEPFTLNGDYIVDSLPSLIYTDFKRLSPYYDFISVGRTRIADRLCEVIRVVARDGTRYSYIVWMDTESKLPMRVDLLDRDGETLEQFRVIAFNVNQDISSSMQTLAKANLPPLLSVPVGEKAKFSWTPTWLPQGFSEVSSSRRPLPTMDNMPAASRLYSDGLFSFSVNVNRATPSSTDQMLRTGRRTVSTSVRDNAEITIVGELPPQTAKRIAENIKFGAAQ [I249A;E250A]
MKQLWFAMSLVTGSLLFSANASATPASGALLQQMNLASQSLNYELSFISINKQGVESLRYRHARLDNRPLAQLLQMDGPRREVVQRGNEISYFEPGLEPFTLNGDYIVDSLPSLIYTDFKRLSPYYDFISVGRTRIADRLCEVIRVVARDGTRYSYIVWMDTESKLPMRVDLLDRDGETLEQFRVIAFNVNQDISSSMQTLAKANLPPLLSVPVGEKAKFSWTPTWLPQGFSEVSSSRRPLPTMDNMPIASRLYSDGLFSFSVNVNRATPSSTDQMLRTGRRTVSTSVRDNAEITIVGELPPQTAKRIAENIKFGAAQ [E250A]

Variants of: B1
Settings: with rsea_ecoli rseA
Remark: another data set of the same source

Effect of a mutation on the interaction, decreasing interaction:
MKQLWFAMSLVTGSLLFSANASATPASGALLQQMNLASQSLNYELSFISINKQGVESLRYRHARLDNRPLAQLLQMDGPRREVVQRGNEISYFEPGLEPFTLNGDYIVDSLPSLIYTDFKRLSPYYDFISVGRTRIADRLCEVIRVVARDGTRYSYIVWMDTESKLPMRVDLLARDGETLEQFRVIAFNVNQDISSSMQTLAKANLPPLLSVPVGEKAKFSWTPTWLPQGFSEVSSSRRPLPTMDNMPIESRLYSDGLFSFSVNVNRATPSSTDQMLRTGRRTVSTSVRDNAEITIVGELPPQTAKRIAENIKFGAAQ [D174A]
MKQLWFAMSLVTGSLLFSANASATPASGALLQQMNLASQSLNYELSFISINKQGVESLRYRHARLDNRPLAQLLQMDGPRREVVQRGNEISYFEPGLEPFTLNGDYIVDSLPSLIYTDFKRLSPYYDFISVGRTRIADRLCEVIRVVARDGTRYSYIVWMDTESKLPMRVDLLDRDGETLAQFRVIAFNVNQDISSSMQTLAKANLPPLLSVPVGEKAKFSWTPTWLPQGFSEVSSSRRPLPTMDNMPIESRLYSDGLFSFSVNVNRATPSSTDQMLRTGRRTVSTSVRDNAEITIVGELPPQTAKRIAENIKFGAAQ [E181A]

Variants of: B2
Settings: with rseb_ecoli rseB

Effect of a mutation on the interaction, decreasing interaction:
MQKEQLSALMDGETLDSELLNELAHNPEMQKTWESYHLIRDSMRGDTPEVLHFDISSRVMAAIEEEPVRQPATLIPEAQPAPHQWQKMPFWQKVRPWAAQLTQMGVAACVSLAVIVGVQHYNGQSETSQQPETPVFNTLPMMGKASPVSLGVPSEATANNGQQQQVQEQRRRIAAMLQDYELQRRLHSEQLQFEQAQTQQAAVQVPGIQTLGTQSQ [N174A]
MQKEQLSALMDGETLDSELLNELAHNPEMQKTWESYHLIRDSMRGDTPEVLHFDISSRVMAAIEEEPVRQPATLIPEAQPAPHQWQKMPFWQKVRPWAAQLTQMGVAACVSLAVIVGVQHYNGQSETSQQPETPVFNTLPMMGKASPVSLGVPSEATANNGQQQQVQEQRRRINAALQDYELQRRLHSEQLQFEQAQTQQAAVQVPGIQTLGTQSQ [M176A]
MQKEQLSALMDGETLDSELLNELAHNPEMQKTWESYHLIRDSMRGDTPEVLHFDISSRVMAAIEEEPVRQPATLIPEAQPAPHQWQKMPFWQKVRPWAAQLTQMGVAACVSLAVIVGVQHYNGQSETSQQPETPVFNTLPMMGKASPVSLGVPSEATANNGQQQQVQEQRRRINAMAQDYELQRRLHSEQLQFEQAQTQQAAVQVPGIQTLGTQSQ [L177A]
MQKEQLSALMDGETLDSELLNELAHNPEMQKTWESYHLIRDSMRGDTPEVLHFDISSRVMAAIEEEPVRQPATLIPEAQPAPHQWQKMPFWQKVRPWAAQLTQMGVAACVSLAVIVGVQHYNGQSETSQQPETPVFNTLPMMGKASPVSLGVPSEATANNGQQQQVQEQRRRINAMLADYELQRRLHSEQLQFEQAQTQQAAVQVPGIQTLGTQSQ [Q178A]
MQKEQLSALMDGETLDSELLNELAHNPEMQKTWESYHLIRDSMRGDTPEVLHFDISSRVMAAIEEEPVRQPATLIPEAQPAPHQWQKMPFWQKVRPWAAQLTQMGVAACVSLAVIVGVQHYNGQSETSQQPETPVFNTLPMMGKASPVSLGVPSEATANNGQQQQVQEQRRRINAMLQAYELQRRLHSEQLQFEQAQTQQAAVQVPGIQTLGTQSQ [D179A]
MQKEQLSALMDGETLDSELLNELAHNPEMQKTWESYHLIRDSMRGDTPEVLHFDISSRVMAAIEEEPVRQPATLIPEAQPAPHQWQKMPFWQKVRPWAAQLTQMGVAACVSLAVIVGVQHYNGQSETSQQPETPVFNTLPMMGKASPVSLGVPSEATANNGQQQQVQEQRRRINAMLQDAELQRRLHSEQLQFEQAQTQQAAVQVPGIQTLGTQSQ [Y180A]
MQKEQLSALMDGETLDSELLNELAHNPEMQKTWESYHLIRDSMRGDTPEVLHFDISSRVMAAIEEEPVRQPATLIPEAQPAPHQWQKMPFWQKVRPWAAQLTQMGVAACVSLAVIVGVQHYNGQSETSQQPETPVFNTLPMMGKASPVSLGVPSEATANNGQQQQVQEQRRRINAMLQDYALQRRLHSEQLQFEQAQTQQAAVQVPGIQTLGTQSQ [E181A]
MQKEQLSALMDGETLDSELLNELAHNPEMQKTWESYHLIRDSMRGDTPEVLHFDISSRVMAAIEEEPVRQPATLIPEAQPAPHQWQKMPFWQKVRPWAAQLTQMGVAACVSLAVIVGVQHYNGQSETSQQPETPVFNTLPMMGKASPVSLGVPSEATANNGQQQQVQEQRRRINAMLQDYEAQRRLHSEQLQFEQAQTQQAAVQVPGIQTLGTQSQ [L182A]
MQKEQLSALMDGETLDSELLNELAHNPEMQKTWESYHLIRDSMRGDTPEVLHFDISSRVMAAIEEEPVRQPATLIPEAQPAPHQWQKMPFWQKVRPWAAQLTQMGVAACVSLAVIVGVQHYNGQSETSQQPETPVFNTLPMMGKASPVSLGVPSEATANNGQQQQVQEQRRRINAMLQDYELARRLHSEQLQFEQAQTQQAAVQVPGIQTLGTQSQ [Q183A]
